The Kd is a measure of binding affinity in units of concentration.

The text below walks through data of PMC10779317, “Crosstalk between G-Quadruplexes and Dnmt3a-Mediated Methylation of the c-MYC Oncogene Promoter”.

The target in one data set is Dnmt3a-CD (mouse (murine), UniProt O88508 630-908). As to the kind of experiment: fluorescence polarization; 100 uM AdoHcy; 20 mM HEPES-NaOH pH 7.5, 100 mM KCl, 1 mM EDTA, 1 mM DTT, 100 uM AdoHcy, 10 nM DNA (60 nM for PWWP); FP temperature not stated; methylation competition at 37 C. As to conditions: protein: recombinant, tags: N-terminal 6xHis, chain copies: 4. For orientation: Fluorescence polarisation rises when a labelled molecule tumbles more slowly, as on binding a larger partner.

A further data set concerns the target M.SssI (UniProt P15840 1-386). The description is as above. As to conditions: protein: recombinant; label: 5'-FAM; intramolecular parallel G4.
The next data set deals with Dnmt3a PWWP domain (UniProt O88508 288-346). Put plainly: fluorescence polarization; 100 uM AdoHcy; 60 nM DNA; 20 mM HEPES-NaOH pH 7.5, 100 mM KCl, 1 mM EDTA, 1 mM DTT, 100 uM AdoHcy, 10 nM DNA (60 nM for PWWP); FP temperature not stated; methylation competition at 37 C. Conditions: protein: recombinant; label: 5'-FAM; intramolecular parallel G4.

Chain of M.SssI (P15840 whole entry, the tested form may be a part): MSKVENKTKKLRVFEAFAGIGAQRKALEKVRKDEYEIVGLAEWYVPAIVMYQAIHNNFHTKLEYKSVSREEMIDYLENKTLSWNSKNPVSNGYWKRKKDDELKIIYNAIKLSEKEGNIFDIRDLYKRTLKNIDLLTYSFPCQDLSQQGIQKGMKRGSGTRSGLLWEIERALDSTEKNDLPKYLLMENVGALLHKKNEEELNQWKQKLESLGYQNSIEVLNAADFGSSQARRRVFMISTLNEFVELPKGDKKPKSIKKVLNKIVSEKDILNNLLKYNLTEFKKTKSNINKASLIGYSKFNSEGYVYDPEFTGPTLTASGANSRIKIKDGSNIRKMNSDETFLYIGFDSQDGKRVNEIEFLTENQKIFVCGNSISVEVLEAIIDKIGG

For the molecule TGGGGAGGGTGGGGAGGGTGGGGAAGG (structured_DNA) [27fG4], the Kd with Dnmt3a-CD (label: 5'-FAM, intramolecular parallel G4) was 120 ± 30 nM; with M.SssI it was 1200 ± 600 nM; with Dnmt3a PWWP domain, 900 ± 200 nM.

B1: 30Uf/30Df (dsDNA)
DNA 1: CTGAATACTACTTGCGCTCTCTAACCTGAT
DNA 2: ATCAGGTTAGAGAGCGCAAGTAGTATTCAG
As for B1, in the data set with Dnmt3a-CD (label: 5'-FAM on both strands, blunt), the Kd came to 220 ± 30 nM.
